Laboratory results: the Immune Epitope Database (IEDB)

How the values were obtained:
Assay in all cases: IEDB peptide-MHC binding, purified MHC/competitive/radioactivity; filed as Kd, often an IC50 or EC50 that approximates it; ≥ and ≤ were set here for values at or beyond the usual limits of such assays
HLA-A*02:02 = target: HLA-A*02:02
HLA-A*02:03 = target: HLA-A*02:03
HLA-A*02:06 = target: HLA-A*02:06
HLA-A*03:01 = conditions: source organism: Vaccinia virus WR
HLA-A*11:01 = conditions: source organism: Vaccinia virus WR
HLA-A*31:01 = conditions: source organism: Vaccinia virus WR
HLA-A*33:01 = conditions: source organism: Vaccinia virus WR
HLA-A*68:01 = conditions: source organism: Vaccinia virus WR
[1] = source organism: Vaccinia virus WR
[2] = source organism: Dengue virus 1 Brazil/97-11/1997
[3] = source organism: Lymphocytic choriomeningitis virus (strain Armstrong)
[4] = source organism: Vaccinia virus Copenhagen
[5] = source organism: SARS coronavirus Tor2
[6] = source organism: Mammarenavirus brazilense

| Sequence | Kd (HLA-A*02:02; [1]) | Kd (HLA-A*02:03; [1]) | Kd (HLA-A*02:06; [1]) | other results |
| --- | --- | --- | --- | --- |
| TIEDDKIVTM | 17000 nM | 17200 nM | ≥ 26100 nM | – |
| TIGLSLVASV | – | – | – | Kd (HLA-A*02:03; [2]): 12.8 nM |
| SMMVILPDKI | 28.3 nM | 19.2 nM | 5.67 nM | – |
| FVSTMPVET | 1220 nM | 391 nM | 1540 nM | – |
| LNMFVSDQV | – | – | – | Kd (HLA-A*02:02; [3]): 17.6 nM; Kd (HLA-A*02:03; [3]): 879 nM; Kd (HLA-A*02:06; [3]): 4810 nM |
| IVNTTYDFL | 1880 nM | 4680 nM | 2990 nM | – |
| MVDVSMMSM | 559 nM | 1160 nM | 101 nM | – |
| GMSIVCIVA | 190 nM | 656 nM | 4510 nM | – |
| AVLSEYETMV | 0.758 nM | 1.47 nM | 23.6 nM | – |
| PVIVPDIKL | ≥ 41200 nM | ≥ 32700 nM | ≥ 51200 nM | – |
| RVKQWVMDT | 3630 nM | 3.61 nM | 13500 nM | – |
| LLNMRDLIVT | 1420 nM | 557 nM | 707 nM | – |
| SIDHCSSFI | 631 nM | 12.9 nM | 199 nM | – |
| YCNYSKFWYL | – | – | – | Kd (HLA-A*02:02; [3]): 1110 nM; Kd (HLA-A*02:03; [3]): 9630 nM; Kd (HLA-A*02:06; [3]): 1060 nM |
| DIDLLFNEKL | 11200 nM | ≥ 26700 nM | ≥ 25700 nM | – |
| KLYIALCKV | – | – | – | Kd (HLA-A*02:02; [4]): 15.6 nM; Kd (HLA-A*02:03; [4]): 1.41 nM; Kd (HLA-A*02:06; [4]): 97 nM |
| IILFQNNDI | 11300 nM | ≥ 52300 nM | 12000 nM | – |
| ILANERYRSA | 104 nM | 18.3 nM | 7800 nM | – |
| YSMCTGKFKV | – | – | – | Kd (HLA-A*02:06; source organism: Dengue virus 2 16681-PDK53): 54.4 nM |
| FLFWFLKSGA | 1.07 nM | 0.584 nM | 22.8 nM | – |
| IIGEPIIVA | 2320 nM | 4780 nM | 1350 nM | – |
| NMINKLYGYA | 1.57 nM | 0.438 nM | 137 nM | – |
| ELKHGLLDSI | 540 nM | 54.8 nM | 1340 nM | – |

| Sequence | Kd (HLA-A*02:02; [1]) | Kd (HLA-A*02:03; [1]) | Kd (HLA-A*02:06; [1]) | other results |
| --- | --- | --- | --- | --- |
| PIPMSRLFM | 3890 nM | 9130 nM | ≥ 31200 nM | – |
| TIDNIVTSL | 178 nM | 1040 nM | 2730 nM | – |
| SLALKNSQA | 662 nM | 459 nM | 19000 nM | – |
| VLQQNNSFI | 100 nM | 249 nM | 8680 nM | – |
| RTRCKYVGCT | 149 nM | 12300 nM | 11600 nM | – |
| YLLGLSAIM | – | – | – | Kd (HLA-A*02:02; [5]): 1.69 nM; Kd (HLA-A*02:03; [5]): 37.1 nM; Kd (HLA-A*02:06; [5]): 3.22 nM |
| KMFEATARGA | – | – | – | Kd (HLA-A*02:03; [2]): 51.1 nM |
| VVVGDIIGV | – | – | – | Kd (HLA-A*02:06; source organism: Dengue virus 3 Martinique/1243/1999): 4.38 nM |
| SVDAMIHKT | 5020 nM | 3660 nM | 10600 nM | – |
| STVDVRNIVT | 3060 nM | 11600 nM | 1570 nM | – |
| VQYENLKYSV | – | – | – | Kd (HLA-A*02:06; [2]): 31.2 nM |
| LFSKNILKY | – | – | – | Kd (HLA-A*03:01): 191 nM; Kd (HLA-A*11:01): 5990 nM; Kd (HLA-A*31:01): 3890 nM; Kd (HLA-A*33:01): 8620 nM; Kd (HLA-A*68:01): 444 nM |
| YLSKEDRII | 305 nM | 435 nM | 10500 nM | – |
| TIISEEYLSK | – | – | – | Kd (HLA-A*03:01): 39.5 nM; Kd (HLA-A*11:01): 1.74 nM; Kd (HLA-A*31:01): 6710 nM; Kd (HLA-A*33:01): 8850 nM; Kd (HLA-A*68:01): 16.6 nM |
| LSNCVHPAV | – | – | – | Kd (HLA-A*02:02; [6]): 427 nM; Kd (HLA-A*02:03; [6]): 1100 nM; Kd (HLA-A*02:06; [6]): 461 nM |
| RLFRSPQVK | – | – | – | Kd (HLA-A*03:01): 87.2 nM; Kd (HLA-A*11:01): 715 nM; Kd (HLA-A*31:01): 4960 nM; Kd (HLA-A*33:01): 15300 nM; Kd (HLA-A*68:01): 3670 nM |
| VQADMGCVV | – | – | – | Kd (HLA-A*02:06; source organism: Dengue virus 4 Singapore/8976/1995): 23.3 nM |
| NMKPNFWSRI | 1680 nM | 193 nM | 13900 nM | – |
| DLTQIFEVY | – | – | – | Kd (HLA-A*03:01): 11100 nM; Kd (HLA-A*11:01): 463 nM; Kd (HLA-A*31:01): 1370 nM; Kd (HLA-A*33:01): 938 nM; Kd (HLA-A*68:01): 857 nM |
| GLFTSLGKA | – | – | – | Kd (HLA-A*02:03; source organism: Dengue virus 4 Dominica/814669/1981): 10.8 nM |
| ALDGTFQRK | – | – | – | Kd (HLA-A*03:01): 12.5 nM; Kd (HLA-A*11:01): 30.4 nM; Kd (HLA-A*31:01): ≥ 37900 nM; Kd (HLA-A*33:01): ≥ 77700 nM; Kd (HLA-A*68:01): ≥ 47200 nM |
| GVIDTMRIY | – | – | – | Kd (HLA-A*03:01): 1680 nM; Kd (HLA-A*11:01): 85.7 nM; Kd (HLA-A*31:01): 991 nM; Kd (HLA-A*33:01): 11400 nM; Kd (HLA-A*68:01): 3020 nM |
